target: T1, HLA-A*02:01 (human); test: UV ligand-exchange ELISA (anti-b2m); ++ = exchange yield >=20%
T1 construct: MHC monomers captured on streptavidin plates; the UV-sensitive peptide is cleaved and exchanged with the test peptide; also called peptide-receptive MHC molecules; MHC class I
Description: (§1) Candidate peptides for T cell based therapies according to the present invention were further tested for their MHC binding capacity (affinity). The individual peptide-MHC complexes were produced by UV-ligand exchange, where a UV-sensitive peptide is cleaved upon UV-irradiation, and exchanged with the peptide of interest as analyzed. Only peptide candidates that can effectively bind and stabilize the peptide-receptive MHC molecules prevent dissociation of the MHC complexes. To determine the yield of the exchange reaction, an ELISA was performed based on the detection of the light chain (β2m) of stabilized MHC complexes. The assay was performed as generally described in Rodenko et al. (Rodenko et al., 2006).
(§2) 96 well MAXISorp plates (NUNC) were coated over night with 2 ug/ml streptavidin in PBS at room temperature, washed 4× and blocked for 1 h at 37° C. in 2% BSA containing blocking buffer. Refolded HLA-A*02:01/MLA-001 monomers served as standards, covering the range of 15-500 ng/ml. Peptide-MHC monomers of the UV-exchange reaction were diluted 100 fold in blocking buffer. Samples were incubated for 1 h at 37° C., washed four times, incubated with 2 ug/ml HRP conjugated anti-β2m for 1 h at 37° C., washed again and detected with TMB solution that is stopped with […]. Absorption was measured at 450 nm. Candidate peptides that show a high exchange yield (preferably higher than 50%, most preferred higher than 75%) are generally preferred for a generation and production of antibodies or fragments thereof, and/or T cell receptors or fragments thereof, as they show sufficient avidity to the MHC molecules and prevent dissociation of the MHC complexes.

| Binder | peptide exchange yield [%] |
| --- | --- |
| QIQGQVSEV | 20 to 50 |
| FLFLKEVKV | 20 to 50 |
| LLFPSDVQTL | 20 to 50 |
| ILHGEVNKV | 20 to 50 |
| ALLSSVAEA | 20 to 50 |
| TLLEGISRA (also called CABY-001) | 20 to 50 |
| SLIEESEEL | 20 to 50 |
| ALYVQAPTV | 20 to 50 |
| ALLLRLFTI | 20 to 50 |
| SILTNISEV | 20 to 50 |
| KMASKVTQV | 20 to 50 |
| FLDGRPLTL | 20 to 50 |
| SLYKSFLQL | 20 to 50 |
| KLIYKDLVSV | 20 to 50 |
| GIINKLVTV | 20 to 50 |
| NIDINNNEL | 20 to 50 |
| LLDAAHASI | 20 to 50 |
| VVAAHLAGA | 20 to 50 |
| NMADGQLHQV | 20 to 50 |

| Binder | peptide exchange yield [%] |
| --- | --- |
| DISKRIQSL | 20 to 50 |
| AIIKEIQTV | 20 to 50 |
| TLDSYLKAV (also called CYP4Z-001) | 20 to 50 |
| ILQDGQFLV (also called DCAF4L2-001) | 20 to 50 |
| GLEERLYTA | 20 to 50 |
| KTASINQNV | 20 to 50 |
| FIAAVVEKV | 20 to 50 |
| LLLLDVPTA | 20 to 50 |
| ALYSGDLHAA | 20 to 50 |
| VQSGLRILL | 20 to 50 |
| KVFELDLVTL | 20 to 50 |
| ALDSTIAHL | 20 to 50 |
| TLYQGLPAEV | 20 to 50 |
| SILKEDPFL | 20 to 50 |
| ALVEKGEFAL | 20 to 50 |
| VLGEEQEGV | 20 to 50 |
| TLLPSSGLVTL | 20 to 50 |
| KLLEEVQLL | 20 to 50 |
| ILTNKVVSV | 20 to 50 |

target: T1, HLA-A*02:01; test: UV ligand-exchange ELISA (anti-b2m); +++ = exchange yield >=50
Description: as §1, §2

| Binder | peptide exchange yield [%] |
| --- | --- |
| ALYPKEITL | 50 to 75 |
| SLVENIHVL | 50 to 75 |
| KLLPMVIQL | 50 to 75 |
| ALLQALMEL | 50 to 75 |
| FLIENLLAA | 50 to 75 |
| QLMNLIRSV | 50 to 75 |
| ALLDGALQL | 50 to 75 |
| FTAEFLEKV | 50 to 75 |
| ALYGNVQQV | 50 to 75 |
| SLITGQDLLSV | 50 to 75 |
| VLTGQVHEL | 50 to 75 |
| ILAEEPIYIRV | 50 to 75 |
| SLFSNIESV | 50 to 75 |
| KLLSLLEEA | 50 to 75 |
| LLLPLELSLA | 50 to 75 |
| QLIEKNWLL | 50 to 75 |
| SLAETIFIV (also called HTR3A-001) | 50 to 75 |
| YLDEVAFML | 50 to 75 |
| KLIDEDEPLFL | 50 to 75 |
| KLFEKSTGL | 50 to 75 |
| FVQEKIPEL | 50 to 75 |
| LLDPKTIFL (also called HAVCR1-001) | 50 to 75 |
| TLFGIQLTEA | 50 to 75 |
| ALQSFEFRV | 50 to 75 |
| SLLEVNEASSV | 50 to 75 |
| GLYPVTLVGV | 50 to 75 |
| FIANLPPELKA | 50 to 75 |
| ILGSFELQL | 50 to 75 |

From patent US20160279215A1, “NOVEL PEPTIDES AND COMBINATION OF PEPTIDES FOR USE IN IMMUNOTHERAPY AGAINST VARIOUS TUMORS” (immatics biotechnologies GmbH, priority 2015, published 2016)
